Experimental data taken from patent US20240117018A1.

Assays:
Assay in all cases: cell-based or functional assay
[1] = molecular target: MuLV envelope (negative control pseudovirus)
[2] = molecular target: HIV-1 Env pseudovirus 231965.c01 (HIV-1)
[3] = molecular target: HIV-1 Env pseudovirus 3103.v3.c10 (HIV-1)
[4] = molecular target: HIV-1 Env pseudovirus A07412M1.vrc12 (HIV-1)
[5] = molecular target: HIV-1 Env pseudovirus BJOX009000.02.4 (HIV-1)
[6] = molecular target: HIV-1 Env pseudovirus BJOX010000.06.2 (HIV-1)
[7] = molecular target: HIV-1 Env pseudovirus C4118.c09 (HIV-1)
[8] = molecular target: HIV-1 Env pseudovirus R3265.c06 (HIV-1)
[9] = molecular target: HIV-1 Env pseudovirus T278-50 (HIV-1)
[10] = molecular target: HIV-1 Env pseudovirus X2088_c9 (HIV-1)

Substance: N49P9 (antibody)
- neutralization IC50 [1]: > 50 µg/mL
- neutralization IC80 [1]: > 50 µg/mL
- neutralization MPI [1]: 13

Substance: 3BNC117 (antibody)
- IC50 (Titer in TZM.bl cells) [2]: 0.05 µg/mL
- IC80 (Titer in TZM.bl cells) [2]: 0.22 µg/mL
- IC50 (Titer in TZM.bl cells) [3]: 0.22 µg/mL
- IC80 (Titer in TZM.bl cells) [3]: 0.85 µg/mL
- IC50 (Titer in TZM.bl cells) [4]: 0.02 µg/mL
- IC80 (Titer in TZM.bl cells) [4]: 0.1 µg/mL
- IC50 (Titer in TZM.bl cells) [5]: 0.4 µg/mL
- IC80 (Titer in TZM.bl cells) [5]: 1.79 µg/mL
- IC50 (Titer in TZM.bl cells) [6]: 1.58 µg/mL
- IC80 (Titer in TZM.bl cells) [6]: 10.4 µg/mL
- IC50 (Titer in TZM.bl cells) [7]: 0.09 µg/mL
- IC80 (Titer in TZM.bl cells) [7]: 0.52 µg/mL
- IC50 (Titer in TZM.bl cells) [8]: 0.48 µg/mL
- IC80 (Titer in TZM.bl cells) [8]: 13 µg/mL
- IC50 (Titer in TZM.bl cells) [9]: > 15 µg/mL
- IC80 (Titer in TZM.bl cells) [9]: > 15 µg/mL
- IC50 (Titer in TZM.bl cells) [10]: > 50 µg/mL
- IC80 (Titer in TZM.bl cells) [10]: > 50 µg/mL

Substance: N49P19 (antibody)
- neutralization IC50 [1]: > 50 µg/mL
- neutralization IC80 [1]: > 50 µg/mL
- neutralization MPI [1]: 0

Substance: VRC07 (antibody)
- IC50 (Titer in TZM.bl cells) [2]: 0.085 µg/mL
- IC80 (Titer in TZM.bl cells) [2]: 0.263 µg/mL
- IC50 (Titer in TZM.bl cells) [3]: 0.675 µg/mL
- IC80 (Titer in TZM.bl cells) [3]: 1.95 µg/mL
- IC50 (Titer in TZM.bl cells) [4]: 0.11 µg/mL
- IC80 (Titer in TZM.bl cells) [4]: 0.353 µg/mL
- IC50 (Titer in TZM.bl cells) [5]: 0.806 µg/mL
- IC80 (Titer in TZM.bl cells) [5]: 2.9 µg/mL
- IC50 (Titer in TZM.bl cells) [6]: 1.06 µg/mL
- IC80 (Titer in TZM.bl cells) [6]: 10 µg/mL
- IC50 (Titer in TZM.bl cells) [7]: 0.121 µg/mL
- IC80 (Titer in TZM.bl cells) [7]: 0.444 µg/mL
- IC50 (Titer in TZM.bl cells) [9]: > 50 µg/mL
- IC80 (Titer in TZM.bl cells) [9]: > 50 µg/mL
- IC50 (Titer in TZM.bl cells) [10]: > 50 µg/mL
- IC80 (Titer in TZM.bl cells) [10]: > 50 µg/mL

Substance: 8ANC195 (antibody)
- IC50 (Titer in TZM.bl cells) [2]: 2.36 µg/mL
- IC80 (Titer in TZM.bl cells) [2]: 2.36 µg/mL
- IC50 (Titer in TZM.bl cells) [3]: 48.1 µg/mL
- IC80 (Titer in TZM.bl cells) [3]: > 50 µg/mL
- IC50 (Titer in TZM.bl cells) [4]: 2.25 µg/mL
- IC80 (Titer in TZM.bl cells) [4]: 7.49 µg/mL
- IC50 (Titer in TZM.bl cells) [5]: 0.64 µg/mL
- IC80 (Titer in TZM.bl cells) [5]: 3.09 µg/mL
- IC50 (Titer in TZM.bl cells) [6]: 0.85 µg/mL
- IC80 (Titer in TZM.bl cells) [6]: 5.84 µg/mL
- IC50 (Titer in TZM.bl cells) [7]: 0.2 µg/mL
- IC80 (Titer in TZM.bl cells) [7]: 0.71 µg/mL
- IC50 (Titer in TZM.bl cells) [8]: 50 µg/mL
- IC80 (Titer in TZM.bl cells) [8]: > 50 µg/mL
- IC50 (Titer in TZM.bl cells) [9]: > 50 µg/mL
- IC80 (Titer in TZM.bl cells) [9]: > 50 µg/mL
- IC50 (Titer in TZM.bl cells) [10]: > 50 µg/mL
- IC80 (Titer in TZM.bl cells) [10]: > 50 µg/mL
